Test results: patent US20150086555A1

B1: TCN-529 (5297_H01) (antibody, V domains shown)
VH: QITLRESGPTLVKPTQTLTLTCTFSGFSLSTNGVNVGWIRQPPGKALEWLALIYWDDDKRYSPSLKRRLTITKDTSKNQVVLTLTNMDPVDTATYYCAHRPDFYGDFEYWGPGTLVTVSS
VL: QSALTQPASVSGSPGQSITISCTGSSSDIGGYNYVSWYQQHPGKAPKLMIYDVNNRPSGVSNRFSGSKSGNTASLTISGLQTDDEADYYCGSYTGSPHYVFGTGTKVTVL
B2: TCN-532 (5262_H18) (antibody, V domains shown)
VH: QVQLQESGPGLVKPSETLSLTCTVSGGSVSSETYYWSWIRQPPGKGLEWIGYIYYIGNTDYRPSLKSRVTISLDTSKNQFSLKLSSVTAADTAVYYCARGAYYDSSGYPAFYIWGQGTMVTVSS
VL: QSVLTQPPSVSGAPGQRVTISCTGSSSNIGSDYDVHWYKQLPGTAPKLLIFGNSNRPSGVPDRFSGSKSGTSASLAITGLQAEDEADYYCQSYDSSLSGFHVFGSGTKVTVL
B3: TCN-526 (5084_C17) (antibody, V domains shown)
VH: EVLMVESGGGLVQPGGSVRLSCVASGFSFSSHWMTWVRQAPGKGLEWVANIEDDGGDKYYVDSVKGRFIISRDNAKNSVYLQMNSLRAEDTAVYFCARGSGSSDRSDYDPHYYYYLDVWGKGATVTVSS
VL: DIQLTQSPSSLSASVGDRVTITCRASQSISRYLNWYQQKPGKAPKLLLFAASTLLDGVPSRFSGSGSGTDFTLTISSLQPEDFATYYCQRNHSPSWTFGQGTRVEIK

Legend:
Conditions in all cases: remark: other sources report otherwise
[1] = target: T1, recombinant soluble homotrimeric HA of A/Wisconsin/67/05 (H3N2) (Influenza A virus A/Wisconsin/67/2005(H3N2)); experiment: trimeric HA microarray, transfection supernatant set 3
[2] = target: T2, recombinant soluble homotrimeric HA of A/duck/Yangzhou/02/05 (H8N4) (Influenza A virus A/duck/Yangzhou/02/2005(H8N4)); experiment: as above
[3] = target: T3, recombinant soluble homotrimeric HA of A/Japan/305/57 (H2N2) (Influenza A virus A/Japan/305/1957(H2N2)); experiment: as above
[4] = target: T4, recombinant soluble homotrimeric HA of A/California/4/09 (H1N1) (Influenza A virus A/California/04/2009(H1N1)); experiment: as above
[5] = target: recombinant soluble homotrimeric HA of A/South Carolina/1/18 (H1N1) (Influenza A virus A/South Carolina/1/18 (H1N1)); experiment: as above
[6] = target: T5, recombinant soluble homotrimeric HA of A/swine/Ontario/01911-2/99 (H4N6) (Influenza A virus A/Swine/Ontario/01911-2/99 (H4N6)); experiment: as above
[7] = target: T6, recombinant soluble homotrimeric HA of A/chicken/Vietnam/NCVD-016/08 (H5N1) (Influenza A virus A/chicken/Vietnam/NCVD-016/2008(H5N1)); experiment: as above
[8] = target: T1, recombinant soluble homotrimeric HA of …; experiment: HA microarray, BCC supernatant
[9] = target: T3, recombinant soluble homotrimeric HA of …; experiment: HA microarray, BCC supernatant
[10] = target: T7, recombinant soluble homotrimeric HA of A/Netherlands/219/03 (H7N7) (Influenza A virus A/Netherlands/219/03(H7N7)); experiment: HA microarray, BCC supernatant
[11] = target: T8, recombinant soluble homotrimeric HA of A/northern shoveler/California/HKWF115/07 (H6) (Influenza A virus A/northern shoveler/California/HKWF115/2007(H6N1)); experiment: HA microarray, BCC supernatant
[12] = target: T6, recombinant soluble homotrimeric HA of …; experiment: HA microarray, BCC supernatant
[13] = target: recombinant homotrimeric HA A/California/4/09 H1N1 (Influenza A virus A/California/04/2009(H1N1)); experiment: protein microarray, purified IgG, trimeric HA
[14] = target: recombinant homotrimeric HA A/duck/Yangzhou/02/05 H8N4 (Influenza A virus A/duck/Yangzhou/02/2005(H8N4)); experiment: protein microarray, purified IgG, trimeric HA
[15] = target: recombinant homotrimeric HA A/chicken/Vietnam/NCVD-016/08 H5N1 (Influenza A virus A/chicken/Vietnam/NCVD-016/2008(H5N1)); experiment: protein microarray, purified IgG, trimeric HA
[16] = target: recombinant homotrimeric HA A/Wisconsin/67/05 H3N2 (Influenza A virus A/Wisconsin/67/2005(H3N2)); experiment: protein microarray, purified IgG, trimeric HA
[17] = target: recombinant homotrimeric HA A/South Carolina/1/18 H1N1 (Influenza A virus A/South Carolina/1/18 (H1N1)); experiment: protein microarray, purified IgG, trimeric HA
[18] = target: recombinant homotrimeric HA A/Japan/305/57 H2N2 (Influenza A virus A/Japan/305/1957(H2N2)); experiment: protein microarray, purified IgG, trimeric HA
[19] = target: recombinant homotrimeric HA A/Netherlands/219/03 H7N7 (Influenza A virus A/Netherlands/219/03(H7N7)); experiment: protein microarray, purified IgG, trimeric HA
[20] = target: recombinant homotrimeric HA A/Solomon Islands/3/06 H1N1 (Influenza A virus A/Solomon Islands/3/2006(H1N1)); experiment: protein microarray, purified IgG, trimeric HA
[21] = target: recombinant soluble homotrimeric HA of A/Hong Kong/1073/99 (H9N2) (Influenza A virus A/Hong Kong/1073/99 (H9N2)); experiment: trimeric HA microarray, transfection supernatant set 3
[22] = target: T9, recombinant soluble homotrimeric HA of A/Solomon Islands/3/06 (H1N1) (Influenza A virus A/Solomon Islands/3/2006(H1N1)); experiment: as above
[23] = target: T7, recombinant soluble homotrimeric HA of …; experiment: as above
[24] = target: T8, recombinant soluble homotrimeric HA of …; experiment: as above
[25] = target: T2, recombinant soluble homotrimeric HA of …; experiment: HA microarray, BCC supernatant
[26] = target: T9, recombinant soluble homotrimeric HA of …; experiment: HA microarray, BCC supernatant
[27] = target: T5, recombinant soluble homotrimeric HA of …; experiment: HA microarray, BCC supernatant
[28] = target: recombinant homotrimeric HA A/swine/Ontario/01911-2/99 H4N6 (Influenza A virus A/Swine/Ontario/01911-2/99 (H4N6)); experiment: protein microarray, purified IgG, trimeric HA
[29] = target: recombinant homotrimeric HA A/northern shoveler/California/HKWF115/07 H6N4 (Influenza A virus A/northern shoveler/California/HKWF115/2007(H6N1)); experiment: protein microarray, purified IgG, trimeric HA
[30] = target: T1, recombinant soluble homotrimeric HA of …; experiment: trimeric HA microarray, transfection supernatant set 2
[31] = target: T2, recombinant soluble homotrimeric HA of …; experiment: as above
[32] = target: T4, recombinant soluble homotrimeric HA of …; experiment: as above
[33] = target: T7, recombinant soluble homotrimeric HA of …; experiment: as above
[34] = target: T6, recombinant soluble homotrimeric HA of …; experiment: as above

Row | Binder | Trimeric HA Binding: RLU [1] | Trimeric HA Binding: RLU [2] | Trimeric HA Binding: RLU [3] | Trimeric HA Binding: RLU [4] | Trimeric HA Binding: RLU [5] | Trimeric HA Binding: RLU [6] | Trimeric HA Binding: RLU [7] | Trimeric HA Binding: RLU [8] | Trimeric HA Binding: RLU [9] | Trimeric HA Binding: RLU [10] | Trimeric HA Binding: RLU [11] | Trimeric HA Binding: RLU [12] | Trimeric HA Binding: RLU [13] | Trimeric HA Binding: RLU [14] | Trimeric HA Binding: RLU [15] | Trimeric HA Binding: RLU [16] | Trimeric HA Binding: RLU [17] | Trimeric HA Binding: RLU [18] | Trimeric HA Binding: RLU [19] | Trimeric HA Binding: RLU [20] | further results
1 | B1 | 2940 RLU | 48 RLU | 45 RLU | 735 RLU | 158 RLU | 45 RLU | 33 RLU | 51600 RLU | 435 RLU | 1160 RLU | 533 RLU | 410 RLU | 977 RLU | 737 RLU | 681 RLU | 25600 RLU | 243 RLU | 1560 RLU | 1310 RLU | 2820 RLU | –
2 | B2 | 9970 RLU | 57 RLU | 441 RLU | 23600 RLU | 311 RLU | 29 RLU | 29 RLU | 18000 RLU | 176 RLU | 327 RLU | 511 RLU | 46 RLU | – | 176 RLU | 487 RLU | 25200 RLU | 149 RLU | 764 RLU | 129 RLU | 571 RLU | Trimeric HA Binding: RLU [21]: 48 RLU; Trimeric HA Binding: RLU [22]: 59 RLU; Trimeric HA Binding: RLU [23]: 42 RLU; Trimeric HA Binding: RLU [24]: 78 RLU; Trimeric HA Binding: RLU [25]: 785 RLU; Trimeric HA Binding: RLU [26]: 327 RLU; Trimeric HA Binding: RLU [27]: 119 RLU; Trimeric HA Binding: RLU [28]: 122 RLU; Trimeric HA Binding: RLU [29]: 117 RLU
3 | B3 | – | – | – | – | – | – | – | 49300 RLU | 246 RLU | 1340 RLU | – | – | 620 RLU | – | – | 26600 RLU | 87 RLU | 642 RLU | – | 804 RLU | Trimeric HA Binding: RLU [30]: 27800 RLU; Trimeric HA Binding: RLU [31]: 4300 RLU; Trimeric HA Binding: RLU [32]: 3600 RLU; Trimeric HA Binding: RLU [33]: 5660 RLU; Trimeric HA Binding: RLU [34]: 3290 RLU; Trimeric HA Binding: RLU [25]: 596 RLU; Trimeric HA Binding: RLU [26]: 341 RLU
